This data set in a line: self-splicing fitness, log relative to wild type (ln ratio); higher = more splicing; Tetrahymena group I intron in knt gene, E. coli kanamycin selection, DiMSum; sequences stand for … in CUCUCU…GGAGGGAAAAGUUAUCAGGCAUGCACCUGGUAGCUAGUCUUUAAACCAAUAGAUUGCAUCGGUUUAAAAGGCAAGACCGUCAAAUUGCGGGAAAGGGGUCAACAGCCGUUCAGUACCAAGUCUCAGGGGAAACUUUGAGAUGGCCUUGCAAAGGGUAUGGUAAUAAGCUGACGGACAUGGUCCUAACCACGCAGCCAAGUCCUAAGUCAACAGAUCUUCUGUUGAUAUGGAUGCAGUUCACAGACUAAAUGUCGGUCGGGGAAGAUGUAUUCUUCUCAUAAGAUAUAGUCGGACCUCUCCUUAAUGGGAGCUAGCGGAUGAAGUGAUGCAACACUGGAGCCGCUGGGAACUAAUUUGUAUGCGAAAGUAUAUUGAUUAGUUUUGGAGUACUCGUGGUCG
The gist of the method: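 Fitness was computed with DiMSum as the error-weighted combination of replicate fold changes, kanamycin versus none, each normalised to wild type. The library randomised all eight intron nucleotides of the P1ex region, with the intron placed in the knt kanamycin-resistance gene on pET-22b(+) in E. coli BL21(DE3). Six replicate transformations were grown overnight at 37°C or 30°C on LB agar with or without 25 μg/mL kanamycin, plus 100 μg/mL carbenicillin, 50 μM IPTG and 0.2% rhamnose. Pooled colonies were amplicon-sequenced on an Illumina HiSeq 2500.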

± gives the uncertainty stated by the source.

Consider ACGUAGCAAUAUUACGUGUC, for which the “self-splicing fitness (ln)” value (30 °C) is -3.68 ± 0.32 and the “self-splicing fitness (ln)” value (37 °C) is -2.48 ± 0.37. On to UCGUAGCAAUAUUACGAGGC, for which, for the setting “30 °C”, the “self-splicing fitness (ln)” value was -0.464 ± 0.44.

In the case of AGACAGCAAUAUUACGCUAA, the “self-splicing fitness (ln)” value is -2.17 ± 0.11 (30 °C) and -0.0364 ± 0.1 (37 °C). As for GACUAGCAAUAUUACGGGCG, the “self-splicing fitness (ln)” value (30 °C) is -0.65 ± 0.061 and the “self-splicing fitness (ln)” value (37 °C) was -0.282 ± 0.071. As for AGUUAGCAAUAUUACGAUCC, the “self-splicing fitness (ln)” value is, setting by setting: (30 °C) 0.593 ± 0.14; (37 °C) -0.367 ± 0.15.

UAGAAGCAAUAUUACGGAUU: the “self-splicing fitness (ln)” value is -1.57 ± 0.11 (30 °C) and -1.37 ± 0.15 (37 °C). On to CCUUAGCAAUAUUACGGGGA, for which the “self-splicing fitness (ln)” value is, setting by setting: (30 °C) -3.75 ± 0.29; (37 °C) -2.63 ± 0.23. For AUAGAGCAAUAUUACGUUAG, in that order: -1.39 ± 0.11 and -1.21 ± 0.16. In the case of GCAGAGCAAUAUUACGUACG, the “self-splicing fitness (ln)” value by setting is: (30 °C) -2.22 ± 0.45; (37 °C) -1.77 ± 0.35. With GACGAGCAAUAUUACGGAUC, the “self-splicing fitness (ln)” value is -2.68 ± 0.39 (30 °C) and -1.75 ± 0.44 (37 °C). Consider CACUAGCAAUAUUACGGCCA, for which, where the note is “30 °C”, the “self-splicing fitness (ln)” value was -3.1 ± 0.23.

CCUUAGCAAUAUUACGAGGA: the “self-splicing fitness (ln)” value runs as follows: (30 °C) -2.8 ± 0.25; (37 °C) -1.69 ± 0.27.

Regarding AUUUAGCAAUAUUACGUCGG, the “self-splicing fitness (ln)” value (30 °C) is -3.82 ± 0.4 and the “self-splicing fitness (ln)” value (37 °C) is -3.18 ± 0.32. In the same order, the values of AUCUAGCAAUAUUACGCCUU are -0.764 ± 0.073 and 0.116 ± 0.095. Take CUUGAGCAAUAUUACGAUCA: the “self-splicing fitness (ln)” value (37 °C) was -2.89 ± 0.48. Regarding CGCCAGCAAUAUUACGCUUU, the “self-splicing fitness (ln)” value reads like this: (30 °C) -2.9 ± 0.13; (37 °C) -1.13 ± 0.12.

CACGAGCAAUAUUACGUUCC: the “self-splicing fitness (ln)” value reads like this: (30 °C) -2.89 ± 0.34; (37 °C) -2.15 ± 0.34. In the same order, the values of ACUAAGCAAUAUUACGAUAU are -1.39 ± 0.12 and -2.28 ± 0.16. In the same order, the values of UCCGAGCAAUAUUACGGGCG are -3.47 ± 0.35 and -1.68 ± 0.36. In the same order, the values of GCCGAGCAAUAUUACGAAUG are -3.59 ± 0.3 and -2.75 ± 0.27. As for ACAAAGCAAUAUUACGACUU, the “self-splicing fitness (ln)” value is, setting by setting: (30 °C) -0.336 ± 0.06; (37 °C) 0.0905 ± 0.079. Turning to GUACAGCAAUAUUACGUGUG, the “self-splicing fitness (ln)” value was -2.12 ± 0.087 (30 °C) and -1.45 ± 0.1 (37 °C). Take AAUGAGCAAUAUUACGUUAA: the “self-splicing fitness (ln)” value reads like this: (30 °C) -2.76 ± 0.18; (37 °C) -1.72 ± 0.17. In the same order, the values of GGCGAGCAAUAUUACGCACA are -0.586 ± 0.082 and -0.225 ± 0.12. With CCUUAGCAAUAUUACGCUAA, the “self-splicing fitness (ln)” value is -3.35 ± 0.4 (30 °C) and -1.97 ± 0.2 (37 °C). In the same order, the values of GAAUAGCAAUAUUACGAUUC are -2.67 ± 0.14 and -2.24 ± 0.2. Regarding ACCAAGCAAUAUUACGAAAA, the “self-splicing fitness (ln)” value is -3.44 ± 0.2 (30 °C) and -2.91 ± 0.23 (37 °C). On to UUAUAGCAAUAUUACGUGGC, for which the “self-splicing fitness (ln)” value is -3.14 ± 0.37 (30 °C) and -2.45 ± 0.39 (37 °C). For CGUAAGCAAUAUUACGACCA, in that order: -2.11 ± 0.35 and -0.83 ± 0.25.

On to CUGGAGCAAUAUUACGAAUA, for which the “self-splicing fitness (ln)” value (30 °C) is -3.07 ± 0.4 and the “self-splicing fitness (ln)” value (37 °C) was -2.15 ± 0.47. For CAGUAGCAAUAUUACGACCC, in that order: -3.52 ± 0.44 and -0.507 ± 0.34. In the same order, the values of UUCAAGCAAUAUUACGCUCU are -1.37 ± 0.17 and 0.387 ± 0.21. Consider ACAGAGCAAUAUUACGCGCG, for which the “self-splicing fitness (ln)” value by setting is: (30 °C) -2.69 ± 0.098; (37 °C) -1.47 ± 0.1. For UGCUAGCAAUAUUACGGUAU, in that order: -2.28 ± 0.1 and -2.43 ± 0.14. With CUACAGCAAUAUUACGAACU, the “self-splicing fitness (ln)” value is, setting by setting: (30 °C) -4.38 ± 0.24; (37 °C) -2.02 ± 0.25. Turning to GACGAGCAAUAUUACGGCCG, the “self-splicing fitness (ln)” value by setting is: (30 °C) -2.02 ± 0.25; (37 °C) -0.723 ± 0.37. For UUCUAGCAAUAUUACGUACU, in that order: -3.29 ± 0.36 and -2.97 ± 0.47. As for AACUAGCAAUAUUACGGAUA, the “self-splicing fitness (ln)” value (30 °C) is -2.79 ± 0.25 and the “self-splicing fitness (ln)” value (37 °C) is -1.2 ± 0.23.

(Values after the supplement of paper PMC7877785.)
